Paper doi:10.1101/2023.07.25.550441 (bioRxiv, 2023)

Target: Homo sapiens ubiquitin (human, UniProt P0CG48 1-76)
Assay: SPR

B1: S. cerevisiae UEV (domain or fragment)
chain: AVVNWLFKVIQPIYNDGRTTFHDSLALLDNFHSLRPRTRVFTHSDGTPQLLLSIYGTISTGEDGSSPHSIPVIMWVPSMYPVKPPFISINLENFDMNTISSSLPIQEYIDSNGWIALPILHCWDPAAMNLIMVVQELMSLLHEPPQDQAP
Kd: 37.9 mM
